Experimental data taken from the Human Domainome abundance scans (Beltran et al. 2025).

B1: Homeobox expressed in ES cells 1, residues 110 to 165; numbered along this chain, Q9UBX0 (parent)
chain: RPRTAFTQNQIEVLENVFRVNCYPGIDIREDLAQKLNLEEDRIQIWFQNRRAKLKR

Variants of: B1
Assay: abundance fitness (aPCA) (normalised: wild type 0, dead -1); higher = more abundant; growth selection in yeast, the domain comes from the species named
Conditions: Homo sapiens

Abundance fitness of substitutions, site by site:
V13: H 0.023; K -0.458; D -0.757; C -0.149; L -0.543; M 0.618; T -0.141; Q -0.184; P -0.596; A -0.272; F -0.378; N -0.278; S -0.224; I 0.467; Y -0.757
I11: R -0.472; D -0.072; E 0.274; C -0.628; V -0.145; G -0.891; P -0.598; N 0.091; M -0.652; F -0.648; Q -0.114; K -0.237; T -0.187; A -0.344; W -0.292; Y -0.46
C22: Q 0.156; P 0.079; W -0.066; S 0.187; D -0.021; I 0.076; M 0.425; E 0.227; G -0.182; F -0.467; Y 0.009; K -0.328; L -0.134; A -0.061; V -0.392; T -0.013; R 0.054
Q10: R -0.662; D -0.287; H -0.594; F -0.993; L -0.744; V -0.279; I -0.404; E -0.278; M 0.017; P -0.922; G -0.574
A5: V 0.296; Y 0.429; K 0.412; C 0.377; E 0.596; N 0.391; P 0.295; Q 0.384; I 0.275; M 0.609; L 0.249; R 0.132; S 0.424; D 0.653; H 0.164; W -0.21; F 0.324
L14: E -0.87; A -1.02; G -0.88; R -0.77; I -0.298; M -0.267; K -0.519; W -0.625; N -0.506; T -0.463
R3: F 0.376; E 0.24; Q 0.27; W -0.674; L -0.008; Y 0.682; H -0.433; M 0.15; C -0.462; T -0.013; D 0.126; K -0.089; A 0.182; G 0.178; S -0.181; N -0.145; I 0.485
F6: M 0.123; D -0.599; K -0.703; Q -0.678; Y -0.065; G -0.797; C -0.673; W -0.365; T -0.859; I -0.075; S -0.791; N -0.454; R -0.688; A -0.865; V -0.155
P2: E 0.734; G 0.309; H 0.545; Q 0.386; F 0.425; W -0.046; K 0.522; C 0.048; R -0.031; L 0.297; M 0.333; D 0.699; Y 0.772; T 0.126; V 0.308; A 0.028
E12: A -0.257; W -0.704; K 0.487; F 0.203; C -0.341; Y -0.264; R -0.346; V -0.137; L -0.236; I -0.612; S 0.016; G -0.525; N -0.148; P -1.07; Q 0.154; T -0.009; D 0.28
T4: P 0.125; R 0.171; C 0.74; D -0.192; M 0.634; S -0.187; W -0.501; N -0.067; E 0.402; H 0.069; V -0.003; G 0.129; F 0.052; A -0.164; I -0.007; Q 0.635; Y -0.163; K 0.116
V17: I -0.091; E -0.372; S -0.335; R -0.84; Q -0.359; L -0.308; W -0.923; H -0.427; F -0.562; Y -0.293; K -0.552; M -0.197; T -0.151; A -0.06; P -0.743
N21: V -0.578; S -0.454; C -0.69; L -0.807; Y -0.592; R -0.948; I -0.522; M -0.058; Q -0.158; F -0.868; D -0.412; G -0.262; A -1.03; W -0.608
Q8: P -0.082; T -0.244; M -0.168; V 0.122; G -0.416; E -0.019; S 0.002; K -0.179; Y -0.264; D -0.094; H -0.373; C -0.183; A 0.158; W -0.598; F -0.441
Y23: M -0.44; L -0.338; K -0.262; R -0.381; Q -0.251; D -0.23; C 0.05; F -0.411; N 0.114; A 0.05
E15: D -0.621; G -0.686; S -0.854; T -0.741; L -0.725; M -0.196; A -0.832; V -0.81; C -0.567; Y -0.528; R -0.503; P -0.499; H -0.463
V20: N 0.208; T -0.03; H -0.021; K 0.106; D 0.136; A -0.052; R -0.118; G -0.157; Y -0.667; W -0.436; C -0.218; S 0.072; L -0.186; F 0.333; M -0.091; E -0.1; I 0.077
N9: L 0.045; T -0.132; G -0.103; E 0.288; D 0.187; V 0.017; M 0.381; K -0.149; A -0.169; H 0.148; S -0.004; P -0.292; F -0.243; C -0.293; Y 0.044; R -0.042; I 0.118
R19: H -0.46; I -0.327; T -0.01; K -0.105; M -0.529; S -0.334; E -0.291; Q -0.187; C -0.354; F -0.467; V -0.142; Y -0.614; W -0.64; G -0.452
F18: S -0.819; M -1.06; Y -0.083; C -0.625; I -0.328; R -0.71; D -0.701; G -0.812; Q -0.891; L -0.459; K -0.845; T -0.82
T7: M -0.288; D 0.161; F -0.701; K -0.245; W -0.845; L -0.417; R -0.587; C -0.666; G -0.401; H -0.312; V -0.681; N -0.084; A -0.068; S 0.112; E -0.352; P -0.664
N16: F -0.962; M -0.215; K -0.034; E -0.114; D -0.073; W -0.755; L -0.561; P -1; Y -0.56; Q -0.073; C -0.365; V -0.701; R -0.417; T -0.125; S -0.02
R1: A 0.352; G -0.505; S -0.482; C 0.12; Y 0.406; V 0.134; T -0.455
